Source: the supplement of paper PMC10065799, “High-throughput profiling of sequence recognition by tyrosine kinases and SH2 domains using bacterial peptide display” (eLife, 2023)

The sequences below were run against EPHB2 (UniProt P29323) (assay: phosphorylation enrichment, bacterial display (enrichment ratio); higher = better substrate or ligand; peptides without Tyr show the background).
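Also: 11-residue human phosphosite peptides and single-mutation variants displayed on the E. coli surface, counted by deep sequencing, each peptide's frequency after selection divided by its frequency in the unselected input library; frequency after pTyr selection over input frequency; kinase dosed for 20-30% of maximal phosphorylation in three min.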

EPHB2, sequence (P29323 whole entry, looked up): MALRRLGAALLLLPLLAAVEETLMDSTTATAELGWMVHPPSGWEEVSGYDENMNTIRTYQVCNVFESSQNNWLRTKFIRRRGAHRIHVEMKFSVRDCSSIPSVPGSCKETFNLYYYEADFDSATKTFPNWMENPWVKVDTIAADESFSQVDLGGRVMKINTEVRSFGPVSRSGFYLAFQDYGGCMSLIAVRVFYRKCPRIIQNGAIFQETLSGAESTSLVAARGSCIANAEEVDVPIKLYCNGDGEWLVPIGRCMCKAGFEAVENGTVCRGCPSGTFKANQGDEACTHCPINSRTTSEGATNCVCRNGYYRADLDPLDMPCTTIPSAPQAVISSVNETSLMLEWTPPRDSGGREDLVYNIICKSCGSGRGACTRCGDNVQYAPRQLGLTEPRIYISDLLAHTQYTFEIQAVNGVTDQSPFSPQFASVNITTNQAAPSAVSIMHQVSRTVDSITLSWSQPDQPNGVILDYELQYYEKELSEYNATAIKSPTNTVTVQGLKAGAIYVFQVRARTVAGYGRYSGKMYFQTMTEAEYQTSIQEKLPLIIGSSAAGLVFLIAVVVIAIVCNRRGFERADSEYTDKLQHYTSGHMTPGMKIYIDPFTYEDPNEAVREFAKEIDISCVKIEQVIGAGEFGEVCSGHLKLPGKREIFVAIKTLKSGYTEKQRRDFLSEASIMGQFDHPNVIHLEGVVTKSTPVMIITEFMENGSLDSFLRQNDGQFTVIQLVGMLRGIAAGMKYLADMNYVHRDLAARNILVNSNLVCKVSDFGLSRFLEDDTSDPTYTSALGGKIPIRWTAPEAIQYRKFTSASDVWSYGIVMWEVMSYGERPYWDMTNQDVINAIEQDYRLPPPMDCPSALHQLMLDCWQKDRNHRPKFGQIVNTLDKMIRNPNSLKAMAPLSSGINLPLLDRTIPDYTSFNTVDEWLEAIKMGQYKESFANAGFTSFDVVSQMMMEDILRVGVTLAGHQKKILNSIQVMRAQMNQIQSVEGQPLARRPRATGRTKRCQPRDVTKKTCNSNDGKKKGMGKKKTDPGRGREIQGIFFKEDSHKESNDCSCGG

Point of comparison: VRFMAYTDETC [F8_Y450_F455C], phosphorylation enrichment 0.59. Against it:
- CERLPYDASKW [FLT1_Y815] — lower, 0.46
- SAVTGYRVDVI [FN1_Y937] — lower, 0.377
- LFPANYVAPMT [GRAP2_Y324] — higher, 1.31
- IHETTHNSIMK [ACTA1_Y281_Y281H] — lower, 0.349
- ENAGYYFQVSA — lower, 0.566
- CGLPRYRWLTH [TSPAN12_Y143_Y138C] — higher, 0.645
- PSPMPYAFCQM [FOXL2_Y215_S217F] — higher, 1.28
- KMMGRYEMYAR [UPB1_Y362_T359M] — lower, 0.551
- PIPAAYNKYDQ [CDC73_Y290_R292K] — higher, 0.599
- RLDGEYFTLQI [TP53_Y327_P322R] — higher, 0.716
- SSPRRYTIAAL [TTR_Y125_G121S] — lower, 0.374
- RRVLVYGDRGA [QDPR_Y16_G18D] — lower, 0.322
- HICTAYKLVLA [DHCR24_Y190_E191K] — higher, 1.53
- TTPYNYSYIFK [RAB14_Y8_A4T] — higher, 2.71
- KNEKVYTRHGV [FLOT1_Y56_S52N] — lower, 0.33
- KDPPDYKFQPR [SOX9_Y172_H169P_YF] — lower, 0.44
- TSNQEYLYLSM [FGFR1_Y766_D768Y] — higher, 1.83
- HTLQLYRCREE [ALPK3_Y342] — lower, 0.588
- ELTAKYLNFFQ [P3H4_Y181_YF] — lower, 0.479
- QADIIYVNTQL [MERTK_Y872_V870I] — lower, 0.518
- YSTDYYRVGGH [NTRK2_Y707] — higher, 3.5
- ARAFIYAIIPA [ACKtide_2014] — higher, 2.22
- GRVLGYGAFRK [FLT4_Y853_G857R] — lower, 0.432
- GSIQQYTFKQE [PRG4_Y1271_I1272T_YF] — lower, 0.451
- ISSLPYMKMIF [SLC4A11_Y853_M848I] — lower, 0.547
- GLSDPYVKIHL [SYT2_Y309] — higher, 0.721
- IALNSYHSRNC [IFNGR1_Y397] — lower, 0.492
- PSRKDYETYQS [CTNND2_Y1154_P1159S] — higher, 1.03

The sequences below were run against FGFR3 (UniProt P22607) in the same assay as above.
FGFR3, sequence (P22607 whole entry, looked up): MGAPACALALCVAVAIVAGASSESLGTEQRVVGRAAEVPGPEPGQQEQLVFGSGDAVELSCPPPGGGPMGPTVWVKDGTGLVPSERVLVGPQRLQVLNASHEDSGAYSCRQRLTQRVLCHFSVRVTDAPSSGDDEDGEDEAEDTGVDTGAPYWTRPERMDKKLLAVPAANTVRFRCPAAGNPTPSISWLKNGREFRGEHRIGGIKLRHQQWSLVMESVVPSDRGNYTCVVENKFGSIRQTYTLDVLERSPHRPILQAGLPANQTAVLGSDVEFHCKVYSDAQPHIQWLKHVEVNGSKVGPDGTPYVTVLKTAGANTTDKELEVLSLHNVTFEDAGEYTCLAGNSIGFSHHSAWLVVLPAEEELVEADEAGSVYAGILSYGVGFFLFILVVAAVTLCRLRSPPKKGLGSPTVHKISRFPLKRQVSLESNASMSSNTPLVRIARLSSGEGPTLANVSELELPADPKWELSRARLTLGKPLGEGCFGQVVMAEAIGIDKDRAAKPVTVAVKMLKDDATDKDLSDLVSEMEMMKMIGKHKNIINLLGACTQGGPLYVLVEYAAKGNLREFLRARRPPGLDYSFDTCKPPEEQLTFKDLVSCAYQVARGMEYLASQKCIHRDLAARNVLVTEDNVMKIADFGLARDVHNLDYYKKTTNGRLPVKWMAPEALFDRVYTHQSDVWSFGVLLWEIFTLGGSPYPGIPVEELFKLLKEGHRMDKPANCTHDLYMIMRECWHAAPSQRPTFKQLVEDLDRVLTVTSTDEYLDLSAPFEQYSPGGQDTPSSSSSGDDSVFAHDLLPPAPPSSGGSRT

Point of comparison: YSTDYYRVGGH [NTRK2_Y707], phosphorylation enrichment 11.1. Against it:
- CERLPYDASKW [FLT1_Y815] — lower, 0.688
- SAVTGYRVDVI [FN1_Y937] — lower, 0.534
- LFPANYVAPMT [GRAP2_Y324] — lower, 0.617
- IHETTHNSIMK [ACTA1_Y281_Y281H] — lower, 0.39
- ENAGYYFQVSA — lower, 1.06
- CGLPRYRWLTH [TSPAN12_Y143_Y138C] — lower, 0.476
- PSPMPYAFCQM [FOXL2_Y215_S217F] — lower, 2.31
- KMMGRYEMYAR [UPB1_Y362_T359M] — lower, 0.529
- PIPAAYNKYDQ [CDC73_Y290_R292K] — lower, 0.448
- RLDGEYFTLQI [TP53_Y327_P322R] — lower, 4.05
- SSPRRYTIAAL [TTR_Y125_G121S] — lower, 0.402
- RRVLVYGDRGA [QDPR_Y16_G18D] — lower, 0.549
- HICTAYKLVLA [DHCR24_Y190_E191K] — lower, 2.2
- TTPYNYSYIFK [RAB14_Y8_A4T] — lower, 0.893
- KNEKVYTRHGV [FLOT1_Y56_S52N] — lower, 0.356
- KDPPDYKFQPR [SOX9_Y172_H169P_YF] — lower, 0.527
- TSNQEYLYLSM [FGFR1_Y766_D768Y] — lower, 8.18
- HTLQLYRCREE [ALPK3_Y342] — lower, 0.7
- ELTAKYLNFFQ [P3H4_Y181_YF] — lower, 0.681
- QADIIYVNTQL [MERTK_Y872_V870I] — lower, 0.84
- ARAFIYAIIPA [ACKtide_2014] — lower, 1.1
- GRVLGYGAFRK [FLT4_Y853_G857R] — lower, 0.495
- GSIQQYTFKQE [PRG4_Y1271_I1272T_YF] — lower, 0.573
- ISSLPYMKMIF [SLC4A11_Y853_M848I] — lower, 0.665
- GLSDPYVKIHL [SYT2_Y309] — lower, 0.589
- IALNSYHSRNC [IFNGR1_Y397] — lower, 0.525
- VRFMAYTDETC [F8_Y450_F455C] — lower, 0.773
- PSRKDYETYQS [CTNND2_Y1154_P1159S] — lower, 0.704
